This note sets out measurements from US20240400675A1 (published 2024).

The target in experiment [1] is T1, human CLDN6 (human, UniProt P56747 1-220).
T1 construct: also called Claudin 6
T1 sequence: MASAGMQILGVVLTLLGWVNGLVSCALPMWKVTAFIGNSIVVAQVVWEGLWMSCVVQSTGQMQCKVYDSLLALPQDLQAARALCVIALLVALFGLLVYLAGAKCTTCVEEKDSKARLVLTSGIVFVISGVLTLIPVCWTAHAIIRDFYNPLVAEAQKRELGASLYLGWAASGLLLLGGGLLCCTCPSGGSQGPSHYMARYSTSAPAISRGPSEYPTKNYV
The experiment in a line: flow cytometry on PA-1 cells engineered to a range of CLDN6 densities.
Text: PA-1 cells were engineered to stably express a range of CLDN6 antigen densities. […] Cells were washed, stained with a secondary antibody, and washed again prior to being analyzed using flow cytometry.
Cell lines were then washed, stained with secondary antibody, and washed again before measuring binding by flow cytometry.

For a further experiment, the target named is T2, human CLDN8 (human, UniProt P56748 1-225).
T2 construct: whole, on cells
T2 sequence (looked up): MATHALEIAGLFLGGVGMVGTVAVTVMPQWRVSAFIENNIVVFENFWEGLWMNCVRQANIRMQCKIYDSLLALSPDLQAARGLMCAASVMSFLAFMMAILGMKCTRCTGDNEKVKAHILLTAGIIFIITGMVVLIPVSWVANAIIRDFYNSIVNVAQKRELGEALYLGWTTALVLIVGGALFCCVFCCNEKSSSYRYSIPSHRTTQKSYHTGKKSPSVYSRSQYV
The experiment in a line: flow cytometry on transiently transfected 293 cells, 100 ug/ml. Here is the method:
(§1) 293 cells were transiently transfected to express CLDN3, CLDN4, CLDN8, or CLDN17. Cells were plated and each test article was added to each cell line at a 100 μg/ml dose. After 1 hour incubation at 4° C., cells were washed and a secondary AF647 antibody was added. Cells were incubated at 4° C. for another hour, followed by additional washing and then analysis by flow cytometry.
(§2) 293 cells were transiently transfected with CLDN3, CLDN4, CLDN8, or CLDN17. Cells were plated and each test article was added to each cell line at a 100 μg/ml dose. After 1 hour incubation at 4° C., cells were washed and a secondary AF647 antibody was added. Cells were incubated at 4° C. for another hour, followed by additional washing and then analysis by flow cytometry. […] This highlights the potential of CLDN6 binding domains having specificity for binding not only CLDN6 but also other claudin family members.

Another experiment deals with T3, human CLDN17 (human, UniProt P56750 1-224).
T3 construct: whole, on cells
T3 sequence (looked up): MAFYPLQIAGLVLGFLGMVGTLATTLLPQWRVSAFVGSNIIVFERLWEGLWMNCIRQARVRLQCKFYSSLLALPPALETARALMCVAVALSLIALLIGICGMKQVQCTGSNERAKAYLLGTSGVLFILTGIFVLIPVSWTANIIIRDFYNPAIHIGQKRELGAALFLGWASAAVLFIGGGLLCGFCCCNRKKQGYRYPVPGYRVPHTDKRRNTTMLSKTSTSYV
Described as above. Here is the method:
as §1, §2

The target in experiment [2] is T1, human CLDN6. The experiment in a line: flow cytometry on HEK293-Trex cells stably expressing the claudin. Background: In flow cytometry, cells or beads pass a laser one at a time.
Experiment [3] has as its target T4, human CLDN9 (human, UniProt O95484 1-217).
T4 construct: also called CLND9
T4 sequence: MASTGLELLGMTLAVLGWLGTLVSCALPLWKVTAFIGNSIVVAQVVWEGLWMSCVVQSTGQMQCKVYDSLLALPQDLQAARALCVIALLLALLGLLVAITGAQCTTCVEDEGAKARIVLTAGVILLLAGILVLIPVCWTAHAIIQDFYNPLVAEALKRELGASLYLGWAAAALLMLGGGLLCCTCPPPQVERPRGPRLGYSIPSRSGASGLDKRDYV
The experiment in a line: flow cytometry on transfected HEK293E cells. The method, then:
(§3) The following experiments used to screen CLDN6 binding domains were generally performed as follows. HEK293T or HEK293E cells were respectively stably or transiently transfected to express CLDN6, CLND9, or other targets of interest. 48 hours post transfection, cells were harvested and incubated with dilutions of the indicated test articles for 1 hour at 4° C. […] Binding was then assessed via flow cytometry.

For experiment [4], the target named is T4, human CLDN9. The experiment in a line: flow cytometry on HEK293E cells expressing CLDN9. The method, then: as §3
The target in experiment [5] is T1, human CLDN6. The experiment in a line: flow cytometry on HEK293E cells expressing CLDN6 or CLDN9; EC50 on CLDN9 cells divided by EC50 on CLDN6 cells. Here is the method: as §3

Residue numbers refer to the chain shown, from its start. Numbers in names are those of the source.

B1: XENP37541 (Xtend analog to XENP37227) (bispecific antibody)
heavy 1: QVQLVQSGAEVKKPGASVKVSCKTSGYTFTEYTMHWVRQAPGQSLEWMGGIDPNNANTHYNQKFQGRVTITVDKSASTAYMELSSLRSEDTAVYYCARIYYFGRLYFDFWGAGTLVTVSSASTKGPSVFPLAPSSKSTSGGTAALGCLVKDYFPEPVTVSWNSGALTSGVHTFPAVLQSSGLYSLSSVVTVPSSSLGTQTYICNVNHKPSDTKVDKKVEPKSCDKTHTCPPCPAPPVAGPSVFLFPPKPKDTLMISRTPEVTCVVVDVKHEDPEVKFNWYVDGVEVHNAKTKPREEEYNSTYRVVSVLTVLHQDWLNGKEYKCKVSNKALPAPIEKTISKAKGQPREPQVYTLPPSREEMTKNQVSLTCDVSGFYPSDIAVEWESDGQPENNYKTTPPVLDSDGSFFLYSKLTVDKSRWEQGDVFSCSVLHEALHSHYTQKSLSLSPGK
heavy 2: QVQLVQSGAEVKKPGASVKVSCKTSGYTFTEYTMHWVRQAPGQSLEWMGGIDPNNANTHYNQKFQGRVTITVDKSASTAYMELSSLRSEDTAVYYCARIYYFGRLYFDFWGAGTLVTVSSASTKGPSVFPLAPSSKSTSGGTAALGCLVKDYFPEPVTVSWNSGALTSGVHTFPAVLQSSGLYSLSSVVTVPSSSLGTQTYICNVNHKPSNTKVDKKVEPKSCGGGGSGGGGSQAVVTQEPSLTVSPGGTVTLTCGSSTGAVTTSNYANWVQQKPGKSPRGLIGGTNKRAPGVPARFSGSLLGGKAALTISGAQPEDEADYYCALWYSNHWVFGGGTKLTVLGKPGSGKPGSGKPGSGKPGSEVQLVESGGGLVQPGGSLRLSCAASGFTFSTYAMNWVRQAPGKGLEWVGRIRSKANNYATYYADSVKGRFTISRDDSKNTLYLQMNSLRAEDTAVYYCVRHGNFGDSYVSWFAYWGQGTLVTVSSGGGGSGGGGSKTHTCPPCPAPPVAGPSVFLFPPKPKDTLMISRTPEVTCVVVDVKHEDPEVKFNWYVDGVEVHNAKTKPREEQYNSTYRVVSVLTVLHQDWLNGKEYKCKVSNKALPAPIEKTISKAKGQPREPQVYTLPPSREQMTKNQVKLTCLVKGFYPSDIAVEWESNGQPENNYKTTPPVLDSDGSFFLYSKLTVDKSRWQQGNVFSCSVLHEALHSHYTQKSLSLSPGK
light: not shown
notes: 2+1 Fab2-scFv-Fc, C6-30_H1.9_L1.187, CD3 High-Int #1, with Xtend Fc (M428L/N434S); copies: 1 + 1 + 2
With B1, the binding result with human CLDN6 [1] was “binds”.

B2: XENP37217, CLDN6 x CD3 bispecific with comparator CLDN6 binding domain Comp_CHO02 in the 2+1 Fab2-scFv-Fc format (bispecific antibody)
heavy 1: EVQVEQSGLELVKPGASVKISCKTSGYTFTEYTMHWVKQSHGKSLEWIGGINPNNGNTRYNQKFKDKATLTVDKSSRTAYMELHTLTSEDSAVYYCARCGDYDLFFFFAYWGQGTLVTVSAASTKGPSVFPLAPSSKSTSGGTAALGCLVKDYFPEPVTVSWNSGALTSGVHTFPAVLQSSGLYSLSSVVTVPSSSLGTQTYICNVNHKPSNTKVDKKVEPKSCGGGGSGGGGSQAVVTQEPSLTVSPGGTVTLTCGSSTGAVTTSNYANWVQQKPGKSPRGLIGGTNKRAPGVPARFSGSLLGGKAALTISGAQPEDEADYYCALWYSNHWVFGGGTKLTVLGKPGSGKPGSGKPGSGKPGSEVQLVESGGGLVQPGGSLRLSCAASGFTFSTYAMNWVRQAPGKGLEWVGRIRSKANNYATYYADSVKGRFTISRDDSKNTLYLQMNSLRAEDTAVYYCVRHGNFGDSYVSWFAYWGQGTLVTVSSGGGGSGGGGSKTHTCPPCPAPPVAGPSVFLFPPKPKDTLMISRTPEVTCVVVDVKHEDPEVKFNWYVDGVEVHNAKTKPREEQYNSTYRVVSVLTVLHQDWLNGKEYKCKVSNKALPAPIEKTISKAKGQPREPQVYTLPPSREQMTKNQVKLTCLVKGFYPSDIAVEWESNGQPENNYKTTPPVLDSDGSFFLYSKLTVDKSRWQQGNVFSCSVMHEALHNHYTQKSLSLSPGK
heavy 2: EVQVEQSGLELVKPGASVKISCKTSGYTFTEYTMHWVKQSHGKSLEWIGGINPNNGNTRYNQKFKDKATLTVDKSSRTAYMELHTLTSEDSAVYYCARCGDYDLFFFFAYWGQGTLVTVSAASTKGPSVFPLAPSSKSTSGGTAALGCLVKDYFPEPVTVSWNSGALTSGVHTFPAVLQSSGLYSLSSVVTVPSSSLGTQTYICNVNHKPSDTKVDKKVEPKSCDKTHTCPPCPAPPVAGPSVFLFPPKPKDTLMISRTPEVTCVVVDVKHEDPEVKFNWYVDGVEVHNAKTKPREEEYNSTYRVVSVLTVLHQDWLNGKEYKCKVSNKALPAPIEKTISKAKGQPREPQVYTLPPSREEMTKNQVSLTCDVSGFYPSDIAVEWESDGQPENNYKTTPPVLDSDGSFFLYSKLTVDKSRWEQGDVFSCSVMHEALHNHYTQKSLSLSPGK
light: DIVMTQFQKFMSTSVGDRVSVTCKASQNVGTNVAWYQQKPGQSPEALISSASSRFSGVPDRFTGSGSGTDFTLTITNVQSEDLADYFCQQYNSFPFTFGSGTELEIKRTVAAPSVFIFPPSDEQLKSGTASVVCLLNNFYPREAKVQWKVDNALQSGNSQESVTEQDSKDSTYSLSSTLTLSKADYEKHKVYACEVTHQGLSSPVTKSFNRGEC
notes: also called comparator molecule XENP37217
Take B2: the binding result in the experiment with human CLDN8 and with human CLDN17 was “binds” in each case.

B3: XENP34221, humanized C6-30 H2L2 bivalent mAb (antibody, human IgG1, kappa, V domains shown)
VH: EVQLVQSGAEVKKPGESLRISCKTSGYTFTEYTMHWVRQMPGKSLEWMGGIDPNNGNTHYNQKFQGHVTISVDKSISTAYLQWSSLKASDTAMYYCARIYYFGRLYFDFWGAGTLVTVSS
VL: DIQMTQSPDSLAVSLGERATINCKASEDIYNRLAWYQQKPGQVPKLLISGATSLETGVPSRFSGSGSGKDYTLTISSLQAEDVAVYYCQQYWSSPLTFGGGTKVEIKR
notes: IgG1 with ablation variant; copies: 2 + 2
B3: in the experiment with human CLDN6 [2], the binding result is recorded as “binds”.

B4: XENP35102 having H2.9_L1 (antibody, human IgG1, kappa, V domains shown)
VH: B3 VH with G56A
VL: DIQMTQSPSSLSASVGDRVTITCQASEDIYNRLAWYQQKPGKVPKLLISGATSLETGVPSRFSGSGSGKDYTFTISSLQPEDIATYYCQQYWSSPLTFGGGTKVEIKR
notes: Bivalent mAb; also called C6-30 H2.9_L1; copies: 2 + 2
B4: in the experiment with human CLDN9 [3], the binding result is on record as “binds”.

B5: XENP36956 (antibody, V domains shown)
VH: QVQLVQSGAEVKKPGASVKVSCKTSGYTFTEYTMHWVRQAPGQSLEWMGGIDPNNGNTHYNQKFQGRVTITVDKSASTAYMELSSLRSEDTAVYYCARILYFGRLYFDFWGAGTLVTVSS
VL: B4 VL with S94A
notes: Bivalent mAb, C6-30 combination variant; also called XENP36956 having H1.22_L1.87; XENP36956 having H1.22_L1.187; copies: 2 + 2
On to B5, for which the response with human CLDN9 [4] was half-maximal at 29.6 µg/mL (EC50). The “CLDN9/CLDN6 EC50 ratio” value with human CLDN6 [5] turned out to be 44.9.
